Each block holds one molecule with its values, some of them ahead of it.
B1: BMP-7 growth factor dimer (ligand, human, UniProt P18075 293-431, looked up)
chain: STGSKQRSQNRSKTPKNQEALRMANVAENSSSDQRQACKKHELYVSFRDLGWQDWIIAPEGYAAYYCEGECAFPLNSYMNATNHAIVQTLVHFINPETVPKPCCAPTQLNAISVLYFDDSSNVILKKYRNMVVRACGCH
B2: BMPRII-Fc chimera (soluble extracellular domain of BMP receptor II) (Fc fusion, human, UniProt Q13873 27-150, looked up)
chain: SQNQERLCAFKDPYQQDLGIGESRISHENGTILCSKGSTCYGLWEKSKGDINLVKQGCWSHIGDPQECHYEECVVTTTPPSIQNGTYRFCCCSTDLCNVNFTENFPPPDTTPLSPPHSFNRDET

Assays:
[1] = biological target: BMP-7 prodomain-growth factor complex (UniProt P18075); experiment: SPR
BMP-7 prodomain = experiment: SPR
[2] = biological target: ActRIIA-Fc chimera (soluble extracellular domain of activin receptor IIA) (human) (UniProt P27037); experiment: SPR
Chain of ActRIIA-Fc chimera (soluble extracellular domain of activin receptor IIA) (human) (P27037 20-135, change not shown): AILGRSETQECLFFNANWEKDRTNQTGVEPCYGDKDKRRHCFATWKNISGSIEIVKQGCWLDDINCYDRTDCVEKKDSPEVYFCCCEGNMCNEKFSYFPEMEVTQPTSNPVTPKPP

[3] = biological target: BMPRII-Fc chimera (soluble extracellular domain of BMP receptor II) (human) (UniProt Q13873); experiment: SPR
[4] = biological target: B2; experiment: AUC
[5] = biological target: B1; experiment: SPR

Molecule: ActRIIA-Fc chimera (soluble extracellular domain of activin receptor IIA) (from UniProt P27037 20-135) (Fc fusion)
reduction of the response against immobilized BMP-7 gfd [1]: 90%

Molecule: B1
stoichiometry N [4]: 2 gfd per BMPRII-Fc dimer

Molecule: B2
reduction of the response against immobilized BMP-7 gfd [1]: 90%
koff [5]: 0.00298 s⁻¹
kon [5]: 625000 M⁻¹ s⁻¹

Further lines, results first:

koff (BMP-7 prodomain): 0.00209 s⁻¹
kon (BMP-7 prodomain): 98700 M⁻¹ s⁻¹
Molecule: BMP-7 growth factor dimer (from UniProt P18075 293-431) (ligand)

koff [2]: 0.00352 s⁻¹
kon [2]: 265000 M⁻¹ s⁻¹
koff [3]: 0.00213 s⁻¹
kon [3]: 216000 M⁻¹ s⁻¹
Molecule: BMP-7 prodomain-growth factor complex (from UniProt P18075 293-431)
